Experimental data as given in the supplement of paper PMC10567573.

B1: FBXO3 (parent)
chain: HDPLWRRHCKKYWLISEEEKTQKN
B2: SPATS1 (parent)
chain: YPEQSKGFHKAGSMLPPVNFSIVP

Variants of: B1
Test: protein stability index of a GFP-peptide fusion (GPS, HEK-293T) (PSI 1-6); higher = more stable
Settings: c terminus: a fixed tail appended
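Also: lentivirally expressed fusions sorted by FACS into six bins by GFP to DsRed ratio, PSI derived from sequencing read proportions per bin multiplied by bin number.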

| Variant | protein stability index |
| --- | --- |
| HDPLWRRECKKYWLISEEEKTQKN | 3.63 |
| HDPLWRRKCKKYWLISEEEKTQKN | 2.89 |
| HDPLWRRYCKKYWLISEEEKTQKN | 2.2 |
| HDPLWRRHCKKYWLISEEEKTQTN | 3.31 |
| HDPLWRRHCKKYWLISEEEKTQGN | 3.65 |
| HDPLWRRHCKKYWLISEEEKTQFN | 2.85 |
| HDPLWRRHCKKYWLISEEEKTQLN | 2.94 |
| HDPHWRRHCKKYWLISEEEKTQKN | 3.45 |
| HDPRWRRHCKKYWLISEEEKTQKN | 2.33 |
| HDPGWRRHCKKYWLISEEEKTQKN | 3.75 |
| HDPLWRRHCKKYWLISEEEHTQKN | 2.95 |
| HDPLWRRHCKKYWLISEEEKTQKY | 2.44 |
| HDPLWRRHCKKYWLISEEEKTQKK | 2.79 |
| HDPLWRRHCKKYWLISEEEKTQKL | 2.81 |
| HDPLWRRHCKKYWLISEEEKTQKR | 3.22 |
| HDPLWRRHCKKYWLISEEEKTQKF | 2.47 |
| HDPLWRRHCKMYWLISEEEKTQKN | 2.44 |
| HDPLWRRHCKPYWLISEEEKTQKN | 2.67 |
| HDPLWRRHCKSYWLISEEEKTQKN | 2.79 |
| HDPLWRRHCKHYWLISEEEKTQKN | 3.26 |
| HDPLWRRHCKEYWLISEEEKTQKN | 3.59 |

| Variant | protein stability index |
| --- | --- |
| HDPLWRRHCKRYWLISEEEKTQKN | 3.35 |
| HDPLQRRHCKKYWLISEEEKTQKN | 4.25 |
| HDFLWRRHCKKYWLISEEEKTQKN | 2.41 |
| HDALWRRHCKKYWLISEEEKTQKN | 3.58 |
| HDCLWRRHCKKYWLISEEEKTQKN | 3.02 |
| HDPLWRRHCKKYWLISEEEKTNKN | 3.19 |
| HDPLWRRHCKKYWLISEEEKTPKN | 3 |
| HDPLWRRHCKKYWLISEEEKTYKN | 2.58 |
| HDPLWRRHCKKYWLISEEEKTIKN | 2.49 |
| HDPLWKRHCKKYWLISEEEKTQKN | 3.32 |
| HDPLWPRHCKKYWLISEEEKTQKN | 1.82 |
| HDPLWRRHCKKYWLISEEEKKQKN | 2.94 |
| HDPLWRRHCKKYWLISEEEKAQKN | 2.84 |
| HDPLWRRHCKKYWLISEEEKYQKN | 2.74 |
| HDPLWRRHCKKYWLISEEEKEQKN | 3.31 |
| HDPLWRRHCKKYWLISEEEKNQKN | 2.95 |
| HDPLWRRHCKKYWLISEEEKSQKN | 3.03 |
| HDPLWRRHCKKYWLISEEEKQQKN | 3.21 |
| HDPLWRRHCKKYWLINEEEKTQKN | 3.5 |
| HDPLWRRHCKKYWLICEEEKTQKN | 2.99 |
| HDPLWRRHCKKYWLIREEEKTQKN | 3.27 |

| Variant | protein stability index |
| --- | --- |
| HRPLWRRHCKKYWLISEEEKTQKN | 2.86 |
| HNPLWRRHCKKYWLISEEEKTQKN | 2.78 |
| HQPLWRRHCKKYWLISEEEKTQKN | 2.91 |
| HDPLWRRHCKKCWLISEEEKTQKN | 3.4 |
| HDPLWRRHCKKVWLISEEEKTQKN | 3.83 |
| HDPLWRRHCKKMWLISEEEKTQKN | 2.98 |
| HDPLWRRHCKKLWLISEEEKTQKN | 3.74 |
| HDPLWRRHCKKRWLISEEEKTQKN | 3.59 |
| HDPLWRRHCKKYWLISEEHKTQKN | 2.91 |
| HDPLWRRHCKKYWLISEELKTQKN | 2.35 |
| HDPLWRRHCKKYWLMSEEEKTQKN | 3.16 |
| HDPLWRRHCKKYWLHSEEEKTQKN | 2.72 |
| HDPLWRRHCKKYWLYSEEEKTQKN | 3.21 |
| HDPLWRSHCKKYWLISEEEKTQKN | 3.46 |
| HDPLWRGHCKKYWLISEEEKTQKN | 4.02 |
| HDPLWRFHCKKYWLISEEEKTQKN | 2.21 |
| HDPLWRQHCKKYWLISEEEKTQKN | 3.54 |
| HDPLWRAHCKKYWLISEEEKTQKN | 3.39 |
| HDPLWRRHCKKYWLISESEKTQKN | 3.01 |
| HDPLWRRHCKKYWLISELEKTQKN | 2.46 |
| HDPLWRRHCKKYWLISEREKTQKN | 2.81 |

| Variant | protein stability index |
| --- | --- |
| HDPLWRRHCKKYWLISEDEKTQKN | 3.2 |
| HDPLWRRHCKKYWLISEYEKTQKN | 2.31 |
| HDPLWRRHKKKYWLISEEEKTQKN | 3.59 |
| HDPLWRRHHKKYWLISEEEKTQKN | 3.42 |
| HDPLWRRHGKKYWLISEEEKTQKN | 4.08 |
| HDPLWRRHVKKYWLISEEEKTQKN | 3.8 |
| HDPLWRRHCKKYWLISQEEKTQKN | 2.98 |
| HDPLWRRHCKKYWLISGEEKTQKN | 3 |
| HDPLWRRHCKKYWHISEEEKTQKN | 3.49 |
| HDPLWRRHCKKYWGISEEEKTQKN | 3.79 |
| HDPLWRRHCKKYWDISEEEKTQKN | 3.98 |
| HDPLWRRHCKKYWFISEEEKTQKN | 3 |
| HDPLWRRHCKKYWQISEEEKTQKN | 3.58 |
| GDPLWRRHCKKYWLISEEEKTQKN | 3.29 |
| ADPLWRRHCKKYWLISEEEKTQKN | 3.78 |
| HDPLWRRHCAKYWLISEEEKTQKN | 2.91 |
| HDPLWRRHCNKYWLISEEEKTQKN | 3.51 |
| HDPLWRRHCYKYWLISEEEKTQKN | 2.52 |
| HDPLWRRHCQKYWLISEEEKTQKN | 3.28 |
| HDPLWRRHCGKYWLISEEEKTQKN | 3.41 |

Variants of: B2
Test: as above
Settings: c terminus: a fixed tail appended

| Variant | protein stability index |
| --- | --- |
| YPEQWKGFHKAGSMLPPVNFSIVP | 2.18 |
| YPEQAKGFHKAGSMLPPVNFSIVP | 2.17 |
| YPEQEKGFHKAGSMLPPVNFSIVP | 2.69 |
| YPEQSKGCHKAGSMLPPVNFSIVP | 2.78 |
| YPEQSKGNHKAGSMLPPVNFSIVP | 3.83 |
| YPEQSKGLHKAGSMLPPVNFSIVP | 2.9 |
| YPEQSKGFHKAGSMEPPVNFSIVP | 2.37 |
| YPEQSKGFHKAGSMRPPVNFSIVP | 1.9 |
| YPEQSKGFHKAGSMDPPVNFSIVP | 2.29 |
| YPEQSKGFHKAGSMVPPVNFSIVP | 1.85 |
| YPEQSKGFHKAGSMHPPVNFSIVP | 2.27 |
| YPEQSKGFHKAGSMIPPVNFSIVP | 1.84 |
| YPEQSKGFHKAGSMTPPVNFSIVP | 2.16 |
| YNEQSKGFHKAGSMLPPVNFSIVP | 2.47 |
| YKEQSKGFHKAGSMLPPVNFSIVP | 2.87 |
| YIEQSKGFHKAGSMLPPVNFSIVP | 1.83 |
| YYEQSKGFHKAGSMLPPVNFSIVP | 1.91 |
| YREQSKGFHKAGSMLPPVNFSIVP | 2.57 |
| YPEQSKGFHKWGSMLPPVNFSIVP | 1.82 |
| YPEQSKGFHKDGSMLPPVNFSIVP | 2.29 |
| YPEQSKGFHKNGSMLPPVNFSIVP | 1.81 |
| YPEQSKGFHKCGSMLPPVNFSIVP | 2.03 |
| YPEQSKGFHKVGSMLPPVNFSIVP | 1.67 |
| YPEQSKGFHKRGSMLPPVNFSIVP | 2.33 |
| YPEQSKGFHKAGSMLPPVNFSIVV | 1.46 |
| YPEQSKGFHKAGSMLPPVNFSIVH | 1.53 |
| YPEQSKGFHKAGSMLPPVNFSIVF | 1.83 |

| Variant | protein stability index |
| --- | --- |
| YPEQSKGFHKAGSMLPPVNFSIVY | 2.08 |
| YPEQSKGFHKAGSMLPPVNFSIVG | 2.37 |
| YPEQSKGFHKAGSMLPPVRFSIVP | 1.85 |
| YPEQSKGFHKAGSMLPPVFFSIVP | 2.48 |
| YPEQSKGFHKAGSMLPPVKFSIVP | 1.82 |
| YPEQSKGFHKAGSMLPPVMFSIVP | 1.75 |
| YPEISKGFHKAGSMLPPVNFSIVP | 1.85 |
| YPELSKGFHKAGSMLPPVNFSIVP | 1.81 |
| YPEASKGFHKAGSMLPPVNFSIVP | 3.18 |
| YPENSKGFHKAGSMLPPVNFSIVP | 1.89 |
| YPEQSKGFHKAGSMLPPVNESIVP | 2.13 |
| YPEQSKGFHKAGSMLPPVNRSIVP | 2.23 |
| YPEQSKGFHKAGSMLPKVNFSIVP | 1.59 |
| YPEQSKGFHAAGSMLPPVNFSIVP | 1.85 |
| YPEQSKGFHGAGSMLPPVNFSIVP | 1.52 |
| YPEQSKGFHQAGSMLPPVNFSIVP | 1.9 |
| YPEQSKGFHKAGSMLIPVNFSIVP | 1.54 |
| YPEQSKGFHKAGSMLYPVNFSIVP | 1.78 |
| YPEQSKGFHKAGSMLTPVNFSIVP | 1.9 |
| YPEQSKGFHKAGSMLFPVNFSIVP | 1.98 |
| YPEQSKGFHKAGSMLNPVNFSIVP | 1.65 |
| YPEQSKGFHKAGSVLPPVNFSIVP | 2.03 |
| YPEQSKGFHKAGSDLPPVNFSIVP | 1.96 |
| YPEQSKGFHKAGSKLPPVNFSIVP | 2.47 |
| YPEQSKGFHKAGSGLPPVNFSIVP | 1.97 |
| CPEQSKGFHKAGSMLPPVNFSIVP | 2.95 |
| GPEQSKGFHKAGSMLPPVNFSIVP | 3.26 |

| Variant | protein stability index |
| --- | --- |
| QPEQSKGFHKAGSMLPPVNFSIVP | 3.43 |
| APEQSKGFHKAGSMLPPVNFSIVP | 3.35 |
| YPEQSKGFHKAGPMLPPVNFSIVP | 1.88 |
| YPEQSKGFHKAGAMLPPVNFSIVP | 1.68 |
| YPEQSKGFHKAGFMLPPVNFSIVP | 1.97 |
| YPEQSKGFHKAGHMLPPVNFSIVP | 1.9 |
| YPEQSKGFHKAGCMLPPVNFSIVP | 1.73 |
| YPEQSKGFHKAGSMLPPWNFSIVP | 1.76 |
| YPEQSKGFHKAGSMLPPQNFSIVP | 2.2 |
| YPEQSKGFHKAGSMLPPMNFSIVP | 2.02 |
| YPEQSKGFHKAGSMLPPRNFSIVP | 1.62 |
| YPEQSKGFHKAGSMLPPVNFSIFP | 1.59 |
| YPEQSKGFHKAGSMLPPVNFSITP | 1.74 |
| YPEQSKGFHKAGSMLPPVNFSIYP | 1.75 |
| YPEQSKGFHKAGSMLPPVNFSCVP | 1.76 |
| YPEQSKGFHKAGSMLPPVNFSQVP | 2.26 |
| YPEQSKGFHKAGSMLPPVNFSHVP | 1.75 |
| YPEQSKGFHKAGSMLPPVNFSMVP | 2.04 |
| YPEQSKGFHKAGSMLPPVNFSYVP | 1.75 |
| YPEQSKGFHKAGSMLPPVNFSDVP | 2.47 |
| YPPQSKGFHKAGSMLPPVNFSIVP | 2.09 |
| YPIQSKGFHKAGSMLPPVNFSIVP | 2.12 |
| YPDQSKGFHKAGSMLPPVNFSIVP | 2.24 |
| YPEQSKGFHKAFSMLPPVNFSIVP | 1.64 |
| YPEQSKGFHKALSMLPPVNFSIVP | 2.24 |
| YPEQSKGFHKAESMLPPVNFSIVP | 1.95 |
| YPEQSKGFHKAISMLPPVNFSIVP | 1.49 |

| Variant | protein stability index |
| --- | --- |
| YPEQSKGFHKANSMLPPVNFSIVP | 1.94 |
| YPEQSKGFHKARSMLPPVNFSIVP | 2.26 |
| YPEQSKGFHKAVSMLPPVNFSIVP | 1.79 |
| YPEQSKGFHKAYSMLPPVNFSIVP | 2.64 |
| YPEQSKGFHKACSMLPPVNFSIVP | 2.75 |
| YPEQSKPFHKAGSMLPPVNFSIVP | 1.71 |
| YPEQSKMFHKAGSMLPPVNFSIVP | 2.2 |
| YPEQSKLFHKAGSMLPPVNFSIVP | 2.24 |
| YPEQSKEFHKAGSMLPPVNFSIVP | 1.63 |
| YPEQSKAFHKAGSMLPPVNFSIVP | 2.45 |
| YPEQSKYFHKAGSMLPPVNFSIVP | 2.14 |
| YPEQSKTFHKAGSMLPPVNFSIVP | 3.08 |
| YPEQSVGFHKAGSMLPPVNFSIVP | 1.67 |
| YPEQSIGFHKAGSMLPPVNFSIVP | 1.86 |
| YPEQSEGFHKAGSMLPPVNFSIVP | 2.41 |
| YPEQSKGFIKAGSMLPPVNFSIVP | 2.38 |
| YPEQSKGFLKAGSMLPPVNFSIVP | 1.66 |
| YPEQSKGFKKAGSMLPPVNFSIVP | 2.56 |
| YPEQSKGFHKAGSMLPPVNFPIVP | 1.96 |
| YPEQSKGFHKAGSMLPPVNFMIVP | 2.06 |
| YPEQSKGFHKAGSMLPPVNFKIVP | 2.15 |
| YPEQSKGFHKAGSMLPPVNFQIVP | 1.88 |
| YPEQSKGFHKAGSMLPPVNFLIVP | 2.08 |
| YPEQSKGFHKAGSMLPPVNFWIVP | 2.43 |
